What was measured:
LdG5K [1] = target: T1, LdG5K (Leishmania donovani, UniProt A0A0R6Y3I5); assay: PK/LDH-coupled NADH oxidation assay; assay type: biochemical
T1 construct: gene G5K; tetramer about 105 kDa
T1 sequence (A0A0R6Y3I5 1-263): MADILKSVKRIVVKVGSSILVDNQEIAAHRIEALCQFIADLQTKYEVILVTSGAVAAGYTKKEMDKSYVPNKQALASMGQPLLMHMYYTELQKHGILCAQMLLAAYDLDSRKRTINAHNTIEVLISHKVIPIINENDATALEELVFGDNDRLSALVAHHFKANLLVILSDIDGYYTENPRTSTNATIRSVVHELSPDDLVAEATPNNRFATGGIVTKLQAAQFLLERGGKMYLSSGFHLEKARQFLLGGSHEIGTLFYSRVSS
From the text: (§1) PK/LDH-coupled NADH oxidation assay on LdG5K

LdG5K [2] = target: T1, LdG5K; assay: PK/LDH-coupled NADH oxidation assay, single point; assay type: biochemical; conditions: 1 mM compound; 100 mM Na glutamate, 5 mM ATP, 5 mM MgCl2, pH 7.4, 25 °C
From the text: PK/LDH-coupled NADH oxidation assay, single point on LdG5K

[3] = substrate: N[C@@H](CCC(=O)O)C(=O)O; assay: PK/LDH-coupled NADH oxidation assay; assay type: biochemical, Leishmania donovani; conditions: 5 mM ATP, 5 mM MgCl2, pH 7.4, 25 °C, no proline
From the text: as §1

[4] = substrate: Nc1ncnc2c1ncn2[C@@H]1O[C@H](COP(=O)(O)OP(=O)(O)OP(=O)(O)O)[C@@H](O)[C@H]1O; assay: PK/LDH-coupled NADH oxidation assay; assay type: biochemical, Leishmania donovani; conditions: 150 mM Na glutamate, 5 mM MgCl2, pH 7.4, 25 °C
From the text: as §1

[5] = substrate: N[C@@H](CCC(=O)O)C(=O)O; assay: PK/LDH-coupled NADH oxidation assay, Hill fit; assay type: biochemical, Leishmania donovani; conditions: no proline, Hill slope 0.94 ± 0.09, pH 7.4, 25 °C
[6] = target: the molecule itself; assay: SEC; Superdex 200 H/R 10/30, 50 mM Tris-HCl pH 7.2, 0.15 M NaCl, 0.5 mL/min, room temperature; mass estimated against protein standards; no proline

Question: With `O=C(O)[C@@H]1CSCN1` [L‐4‐thioproline] as the molecule, how does the IC50 (LdG5K [1]) read?
Answer: 1800 ± 200 µM

Question: For `O=C(O)[C@@H]1CCCN1` [L‐proline], which IC50 (LdG5K [1]) is on record?
Answer: 390 ± 80 µM

Question: For `O=C(O)[C@@H]1C[C@H](O)CN1` [Cis‐4‐hydroxy‐L‐proline], which “LdG5K activity (%) with 1 mM” value (LdG5K [2]) is on record?
Answer: 87%

Question: With `O=C(O)[C@H]1CN[C@H](C(=O)O)C1` [L‐trans‐pyrrolidine‐2,4‐dicarboxylic acid] as the molecule, how does the “LdG5K activity (%) with 1 mM” value (LdG5K [2]) read?
Answer: 84%

Question: `O=C(O)[C@@H]1CCN1` [L‐azetidine‐2‐carboxylic acid] was tested. Which IC50 (LdG5K [1]) did it give?
Answer: 730 ± 70 µM

Question: How did the IC50 (LdG5K [1]) turn out when `O=C(O)C1C=CCN1` (racemic) [3,4‐dehydro‐D,L‐proline] was run?
Answer: 490 ± 20 µM

Question: With `O=C(O)[C@@H]1C[C@@H](O)CN1` [Trans‐4‐hydroxy‐L‐proline] as the molecule, how does the “LdG5K activity (%) with 1 mM” value (LdG5K [2]) read?
Answer: 89%

Question: How did the “LdG5K activity (%) with 1 mM” value (LdG5K [2]) turn out when `C[C@@]1(C(=O)O)CCCN1` [α‐methyl‐L‐proline] was run?
Answer: 82%

B1: Leishmania donovani glutamate 5-kinase (enzyme, UniProt A0A0R6Y3I5 1-263, looked up)
chain: T1 sequence (A0A0R6Y3I5 1-263)
notes: theoretical Mr 29.033 kDa; Cloned through BamHI/EcoRI into a modified pGEX-6P-1 with an in-frame N-terminal His-GST tag; also called LdG5K; G5K; source: E. coli C41(DE3) pLysS, purified (glutathione resin, on-column cleavage by PreScission protease); not shown: His, N-terminal, cleaved; GST, N-terminal, cleaved
Question: Which results are given for B1?
Answer: Km [3]: 10 ± 0.7 mM; kcat [3]: 12.8 ± 0.3 s⁻¹; kcat/Km [3]: 1280 M⁻¹ s⁻¹; Km [4]: 0.6 ± 0.07 mM; kcat [4]: 11.7 ± 0.3 s⁻¹; kcat/Km [4]: 19500 M⁻¹ s⁻¹; K0.5 [5]: 19.0 ± 2.9 mM; kcat [5]: 13.5 ± 0.6 s⁻¹; stoichiometry N [6]: 4
